Measured values taken from PMC3254608, “Inscuteable Regulates the Pins-Mud Spindle Orientation Pathway” (PLoS ONE, 2012).

T1: Pins TPR (residues 42-398), soluble (Drosophila, UniProt Q9VB22 42-398)
T1 construct: Partner of Inscuteable (Pins), Drosophila, residues 42-398, the TPR domain; it may be a hexahistidine fusion (pBH vector); also called Pins TPRs; source: E. coli BL21(DE3), purified
T1 sequence (looked up): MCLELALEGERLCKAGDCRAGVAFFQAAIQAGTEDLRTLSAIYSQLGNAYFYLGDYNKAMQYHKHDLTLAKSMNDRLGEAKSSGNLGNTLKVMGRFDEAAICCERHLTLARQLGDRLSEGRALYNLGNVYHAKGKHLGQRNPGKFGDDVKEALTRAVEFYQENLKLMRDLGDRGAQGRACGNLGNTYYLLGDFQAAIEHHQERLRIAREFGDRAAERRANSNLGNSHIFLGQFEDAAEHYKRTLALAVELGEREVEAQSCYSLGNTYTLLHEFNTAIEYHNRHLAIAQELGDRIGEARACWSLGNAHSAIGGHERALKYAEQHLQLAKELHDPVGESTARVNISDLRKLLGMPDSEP


Legend:
[1] = target: T1, Pins TPR (residues 42-398), soluble; assay: fluorescence polarisation; fluorescence anisotropy, competition: Inscuteable added to a pre-formed complex of 100 nM TMR-Mud and 1 uM Pins, binding buffer, 20°C; details: both partners purified
[2] = target: TMR-Mud peptide (Mud residues 1955-1970 with an NH2-terminal cysteine, labelled with tetramethylrhodamine) (Drosophila); assay: fluorescence polarisation; fluorescence anisotropy, direct titration: constant 100 nM TMR-Mud, increasing ligand, binding buffer, 20°C, fit to 1:1 binding

Row | Kd [1] | Kd [2] | Binder
1 | 5 µM |  | MBP-fusion of the central Ankyrin-repeat containing domain of Inscuteable (residues 252-600) (domain or fragment, Drosophila, UniProt Q24367 252-600, looked up, Inscuteable (Insc), Drosophila, residues 252-600, including the central Ankyrin-repeat containing region; pMAL-c2 based vector; also called MBP-Insc; source: E. coli BL21(DE3), purified (amylose resin)) APPPYNNETVTFGATEQDESLQQQPSPLRVRSLRFTASTSTPKSGSKIAKRGKKHPEPVASWMSEQRWAGEPEVMCTLQHKSIAQEAYKNYTITTSAVCKLVRQLQQQALSLQVHFERSERVLSGLQASSLPEALAGATQLLSHLDDFTATLERRGVFFNDAKIERRRYEQHLEQIRTVSKDTRYSLERQHYINLESLLDDVQLLKRHTLITLRLIFERLVRVLVISIEQSQCDLLLRANINMVATLMNIDYDGFRSLSDAFVQNEAVRTLLVVVLDHKQSSVRALALRALATLCCAPQAINQLGSCGGIEIVRDILQVESAGERGAIERREAVSLLAQITAAWHGSEH
2 |  | 1.1 µM | Pins TPR (residues 42-398), soluble (domain or fragment) MCLELALEGERLCKAGDCRAGVAFFQAAIQAGTEDLRTLSAIYSQLGNAYFYLGDYNKAMQYHKHDLTLAKSMNDRLGEAKSSGNLGNTLKVMGRFDEAAICCERHLTLARQLGDRLSEGRALYNLGNVYHAKGKHLGQRNPGKFGDDVKEALTRAVEFYQENLKLMRDLGDRGAQGRACGNLGNTYYLLGDFQAAIEHHQERLRIAREFGDRAAERRANSNLGNSHIFLGQFEDAAEHYKRTLALAVELGEREVEAQSCYSLGNTYTLLHEFNTAIEYHNRHLAIAQELGDRIGEARACWSLGNAHSAIGGHERALKYAEQHLQLAKELHDPVGESTARVNISDLRKLLGMPDSEP
